# Source: patent US20060281118A1 (UNIVERSITY OF MEDICINE AND DENTISTRY OF NEW JERSEY, published 2006)
# T1: Cim5 (yeast, UniProt P33299 1-467)
# T1 construct: Endogenous protein in yeast extracts, detected by immunoblot as part of the proteasome complex
# T1 sequence (looked up): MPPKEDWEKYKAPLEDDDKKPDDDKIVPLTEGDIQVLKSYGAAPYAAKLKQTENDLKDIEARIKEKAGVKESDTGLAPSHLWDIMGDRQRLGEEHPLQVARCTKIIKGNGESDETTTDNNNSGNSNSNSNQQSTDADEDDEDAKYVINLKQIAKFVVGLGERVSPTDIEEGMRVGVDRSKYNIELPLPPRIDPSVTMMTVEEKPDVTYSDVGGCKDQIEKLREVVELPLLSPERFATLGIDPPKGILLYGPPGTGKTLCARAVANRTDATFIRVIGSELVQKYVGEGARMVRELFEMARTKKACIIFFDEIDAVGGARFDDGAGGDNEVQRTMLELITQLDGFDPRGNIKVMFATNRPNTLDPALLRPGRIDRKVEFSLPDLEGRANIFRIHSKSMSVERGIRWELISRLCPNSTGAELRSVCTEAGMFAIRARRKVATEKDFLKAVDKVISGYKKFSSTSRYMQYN
# T2: Cim3 (yeast, UniProt Q01939 2-405)
# T2 construct: Endogenous protein in yeast extracts, detected by immunoblot as part of the proteasome complex; also called Sug1
# T2 sequence (looked up): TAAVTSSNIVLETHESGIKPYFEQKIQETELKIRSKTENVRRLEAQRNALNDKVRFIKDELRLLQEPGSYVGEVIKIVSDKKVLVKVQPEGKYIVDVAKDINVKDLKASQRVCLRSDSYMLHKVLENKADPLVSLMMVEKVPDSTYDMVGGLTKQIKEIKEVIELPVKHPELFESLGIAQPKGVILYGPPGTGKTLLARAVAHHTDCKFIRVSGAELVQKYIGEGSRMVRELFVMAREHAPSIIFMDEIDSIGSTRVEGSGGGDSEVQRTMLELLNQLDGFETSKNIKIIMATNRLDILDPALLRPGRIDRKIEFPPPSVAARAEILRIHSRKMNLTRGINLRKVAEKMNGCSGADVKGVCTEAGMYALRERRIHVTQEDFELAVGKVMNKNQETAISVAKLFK
# B1: GST-UbL^HRA (other)
# chain: MAVTITLKTLQQQTFKIRMEPDETVKVLKEKIEAEKGRDAFPVAGQKLIYAGKILSDDVPIRDYRIDEKNFVVVMVTKTKA
# notes: The UbL is linked to the C-terminus of GST; also called ubiquitin-like domain of HHR23A linked to GST; not shown: glutathione S-transferase (GST)
# Columns and labels:
# Pre1-FLAG (yeast) = Pre1-FLAG (yeast) (UniProt P22141); test: co-immunoprecipitation on FLAG-agarose; amount left on the beads after 18 hours at 4° C.
# Cim5 = target: T1, Cim5; test: GST pull-down from yeast extracts, Cim3 and Cim5 immunoblot (FIG. 13A, lane 5)
# Protocol: (§1) GST linked proteins were expressed in yeast and purified on glutathione-SEPHAROSE. Proteins retained on the beads were resolved in SDS-polyacrylamide gels, transferred to nitrocellulose, and incubated with antisera specific to proteasome subunits Cim3 and Cim5. The blot was developed by enhanced chemiluminescence ([…]). […] Yeast strains expressing the GST linked proteins as well as Pre1-FLAG, FIG. 13B. The blot was developed with anti-FLAG antiserum (KODAK). The position of molecular weight markers are indicated.
# (§2) Extracts were incubated with glutathione-SEPHAROSE, and bound proteins separated in a SDS-polyacrylamide gel, transferred to nitrocellulose and analyzed by immunological methods. […] The interacting proteins were analyzed via western blot analysis with Cim5 antibodies which cross-react with Mss1, a human counterpart of yeast Cim5 (Ghislain, et al. (1993) Nature 366:358-361).
# Cim3 = target: T2, Cim3; test: as above
# Protocol: as §1, §2
# Chain of Pre1-FLAG (yeast) (P22141 whole entry): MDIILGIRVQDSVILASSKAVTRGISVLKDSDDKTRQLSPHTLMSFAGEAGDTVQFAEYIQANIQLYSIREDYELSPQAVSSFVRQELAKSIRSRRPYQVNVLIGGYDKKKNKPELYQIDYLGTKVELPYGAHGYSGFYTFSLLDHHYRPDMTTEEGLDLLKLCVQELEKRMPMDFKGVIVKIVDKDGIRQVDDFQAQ
Molecule,percent of cellular Rad23 precipitated with Pre1-FLAG (Pre1-FLAG (yeast)),binding result (Cim5),binding result (Cim3)
native Rad23 (from UniProt P32628 1-398),5%,–,–
B1,–,no binding,no binding
